Data taken from publication PMC7498065 (2020).

Molecular target: Complement component C5 (human, UniProt P01031)
Experiment: SPR

Complement component C5, sequence (P01031 19-673, chain 1 of 2): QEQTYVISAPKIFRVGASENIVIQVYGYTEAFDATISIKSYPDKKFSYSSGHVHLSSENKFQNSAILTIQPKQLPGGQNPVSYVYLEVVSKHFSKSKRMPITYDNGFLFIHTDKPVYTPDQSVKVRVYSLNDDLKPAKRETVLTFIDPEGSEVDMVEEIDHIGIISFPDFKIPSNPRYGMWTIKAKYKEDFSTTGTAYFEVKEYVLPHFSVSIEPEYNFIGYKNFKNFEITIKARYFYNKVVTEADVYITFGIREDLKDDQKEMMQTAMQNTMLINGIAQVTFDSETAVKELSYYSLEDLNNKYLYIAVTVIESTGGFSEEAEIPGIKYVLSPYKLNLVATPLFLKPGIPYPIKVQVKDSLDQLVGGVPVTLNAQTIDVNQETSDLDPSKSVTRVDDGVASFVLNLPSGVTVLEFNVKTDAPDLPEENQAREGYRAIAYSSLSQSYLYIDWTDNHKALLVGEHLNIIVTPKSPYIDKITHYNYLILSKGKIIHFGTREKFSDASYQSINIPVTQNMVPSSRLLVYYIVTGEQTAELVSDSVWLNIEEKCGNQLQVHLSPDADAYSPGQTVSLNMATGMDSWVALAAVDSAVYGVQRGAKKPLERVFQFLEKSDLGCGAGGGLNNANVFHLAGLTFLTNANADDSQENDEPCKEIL
Complement component C5, sequence (P01031 678-1676, chain 2 of 2): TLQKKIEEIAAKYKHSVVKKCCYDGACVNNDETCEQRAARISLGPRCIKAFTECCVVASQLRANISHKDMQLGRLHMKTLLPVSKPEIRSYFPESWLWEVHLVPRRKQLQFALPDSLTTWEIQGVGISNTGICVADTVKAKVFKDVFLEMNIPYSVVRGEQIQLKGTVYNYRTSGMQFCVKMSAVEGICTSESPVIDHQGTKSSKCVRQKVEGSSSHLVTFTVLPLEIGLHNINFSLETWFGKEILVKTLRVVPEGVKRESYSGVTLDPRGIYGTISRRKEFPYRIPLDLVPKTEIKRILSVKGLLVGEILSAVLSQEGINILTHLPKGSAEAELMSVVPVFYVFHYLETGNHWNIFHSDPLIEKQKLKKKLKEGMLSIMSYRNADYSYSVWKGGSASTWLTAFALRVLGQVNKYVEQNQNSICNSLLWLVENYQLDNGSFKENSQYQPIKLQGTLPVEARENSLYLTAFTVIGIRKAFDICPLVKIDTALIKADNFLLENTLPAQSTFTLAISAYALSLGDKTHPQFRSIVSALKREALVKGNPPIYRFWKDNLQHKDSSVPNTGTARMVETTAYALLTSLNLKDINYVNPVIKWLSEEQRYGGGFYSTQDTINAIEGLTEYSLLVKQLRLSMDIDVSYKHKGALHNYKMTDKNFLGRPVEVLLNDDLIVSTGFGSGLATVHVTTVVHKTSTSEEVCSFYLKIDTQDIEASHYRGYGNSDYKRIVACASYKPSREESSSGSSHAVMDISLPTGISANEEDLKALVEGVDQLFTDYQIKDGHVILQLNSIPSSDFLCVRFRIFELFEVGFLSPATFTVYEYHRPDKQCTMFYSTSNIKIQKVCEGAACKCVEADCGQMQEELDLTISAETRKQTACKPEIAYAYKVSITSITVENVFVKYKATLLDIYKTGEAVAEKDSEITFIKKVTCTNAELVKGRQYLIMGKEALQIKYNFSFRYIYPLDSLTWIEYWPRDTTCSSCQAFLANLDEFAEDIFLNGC

Row | Binder | Kd [nM]
1 | PGT121-K149 fusion protein (Fab) chain 1: QMQLQESGPGLVKPSETLSLTCSVSGASISDSYWSWIRRSPGKGLEWIGYVHKSGDTNYSPSLKSRVNLSLDTSKNQVSLSLVAATAADSGKYYCARTLHGRRIYGSENLYFQGSCPDGFSYRSWDDFCCPMVGRCLAPRNGSENLYFQGSEWFTYFYMDVWGNGTQVTVSS chain 2: QSVLTQPPDISVAPGETARISCGEKSLGSRAVQWYQHRAGQAPSLIIYNNQDRPSGIPERFSGSPDSPFGTTATLTITSVEAGDEADYYCHIWDSRVPTKWVFGGGTTLTVL | 517
2 | PGT121-K136 fusion protein (Fab) chain 1: QMQLQESGPGLVKPSETLSLTCSVSGASISDSYWSWIRRSPGKGLEWIGYVHKSGDTNYSPSLKSRVNLSLDTSKNQVSLSLVAATAADSGKYYCARTLHGRRIYGSENLYFQGTCPDNYREVDGCDPYDCCLTTWCTNSYCTRYIENLYFQGSEWFTYFYMDVWGNGTQVTVSS chain 2: QSVLTQPPDISVAPGETARISCGEKSLGSRAVQWYQHRAGQAPSLIIYNNQDRPSGIPERFSGSPDSPFGTTATLTITSVEAGDEADYYCHIWDSRVPTKWVFGGGTTLTVL | < 2.2
